Molecular target: type IV collagen

B1: murine chimera FIXGla-Egf1FVIIa (protein)
chain: MKHLNTVMAESPALITIFLLGYLLSTECAVFLDRENATKILTRPKRYNSGKLEEFVRGNLERECIEERCSFEEAREVFENTEKTTEFWKQYVDGDQCESNPCLNGGICKDDISSYECWCQVGFEGRNCEFSKNEQLICANENGDCDQYCRDHVGTKRTCSCHEDYTLQPDEVSCKPKVEYPCGRIPVVEKRNSSSRQGRRKRRKRIVGGNVCPKGECPWQAVLKINGLLLCGAVLLDARWIVTAAHCFDNIRYWGNITVVMGEHDFSEKDGDEQVRRVTQVIMPDKYIRGKINHDIALLRLHRPVTFTDYVVPLCLPEKSFSENTLARIRFSRVSGWGQLLDRGATALELMSIEVPRLMTQDCLEHAKHSSNTPKITENMFCAGYMDGTKDACKGDSGGPHATHYHGTWYLTGVVSWGEGCAAIGHIGVYTRVSQYIDWLVRHMDSKLQVGVFRLPLL
  ELISA measurements of expressed chimera in blood 10 minutes after a bolus of FIX: a 4-fold increase in the chimeric protein was measured

Reference: patent US20120064075
